Reference: patent US11124550B2, “Proteinaceous molecules and methods of use” (priority 2015, dated 2021)
Positions of bridges follow the written chain, without caps; N, C: chain ends. Residues, ends and D or L forms follow the SMILES beside them.

Tests used:
TG or DRG neurons = experiment: Calcium imaging of cultured somatosensory neurons (Fura-2); assay type: cell-based, rat
hNav1.1 [1] = target: T1, hNav1.1 (Homo sapiens, UniProt P35498); experiment: Automated whole-cell patch clamp (QPatch 16X), sustained currents in HEK293 cells; assay type: cell-based; details: for fast inactivation and sustained current at end of depolarising pulse, hNav1.1: 300 nM; for EC50: HEK293 cells stably expressing hNav1.1, n=3, read-out: EC50 for evoking sustained currents at hNav1.1
T1 construct: expressed in transfected cells; host or cells: HEK293T
Experimental: The activity of recombinant Hm1b was assessed at hNav1.1-1.7. Sodium currents were measured from hNav channels stably expressed in HEK293 cells using an automated whole-cell patch-clamp electrophysiology system (QPatch 16X; Sophion, Ballerup, Denmark). The extracellular solution comprised 2 mM CaCl2), 1 mM MgCl2, 10 mM HEPES, 4 mM KCl, 145 mM NaCl, 10 mM D-glucose at pH 7.3, and 305 mOsm. The intracellular solution comprised 140 mM CsF, 1 mM/5 mM EGTA/CsOH, 10 mM HEPES, 10 mM NaCl at pH 7.3, osmolality 320 mOsm. The elicited currents were sampled at 25 kHz and filtered at 5 kHz. Cells were maintained at a holding potential of −80 mV and sodium currents were elicited by 210 ms voltage steps at 0 mV after a 50 ms conditioning step from −120 mV. For dose-response experiments, cells were incubated for 5 min with increasing concentrations of Hm1b. Peptide stock solutions were made up to 10 μM and serial dilutions were prepared in extracellular solution containing 0.1% BSA. Graphs and fittings were performed using Prism 7.0 (GraphPad Software, San Diego, Calif.). Numerical data are presented as mean SEM based on at least three experiments (n≥3).
The point mutation (Lys to Ser at position 11) was introduced into the pLIC-MBP-Hm1b expression plasmid (produced according to the methods of Example 7) by polymerase chain reaction (PCR) using mutagenic primers and standard protocols with Platinum Pfx DNA Polymerase (Invitrogen). Mutagenic primers were designed using the online tool PrimerX and synthesised by Integrated DNA Technologies, Inc. (Emu Heights, NSW). DNA from the mutant construct was isolated and sequenced to verify the desired mutation (AGRF, Brisbane, Australia). Plasmid DNA was isolated using ISOLATE II plasmid Mini Kit (Bioline, London, UK) for transformation into E. coli BL21 cells for recombinant peptide production. […].

[2] = after 72 hours, 37° C., 1 μM
hNav1.3 = target: T2, hNav1.3 (Homo sapiens, UniProt Q9NY46); experiment: Automated planar whole-cell patch clamp (Patchliner), hSCN3A HEK293T cells; assay type: cell-based
T2 construct: expressed in transfected cells; host or cells: HEK293T
T2 sequence (Q9NY46 whole entry): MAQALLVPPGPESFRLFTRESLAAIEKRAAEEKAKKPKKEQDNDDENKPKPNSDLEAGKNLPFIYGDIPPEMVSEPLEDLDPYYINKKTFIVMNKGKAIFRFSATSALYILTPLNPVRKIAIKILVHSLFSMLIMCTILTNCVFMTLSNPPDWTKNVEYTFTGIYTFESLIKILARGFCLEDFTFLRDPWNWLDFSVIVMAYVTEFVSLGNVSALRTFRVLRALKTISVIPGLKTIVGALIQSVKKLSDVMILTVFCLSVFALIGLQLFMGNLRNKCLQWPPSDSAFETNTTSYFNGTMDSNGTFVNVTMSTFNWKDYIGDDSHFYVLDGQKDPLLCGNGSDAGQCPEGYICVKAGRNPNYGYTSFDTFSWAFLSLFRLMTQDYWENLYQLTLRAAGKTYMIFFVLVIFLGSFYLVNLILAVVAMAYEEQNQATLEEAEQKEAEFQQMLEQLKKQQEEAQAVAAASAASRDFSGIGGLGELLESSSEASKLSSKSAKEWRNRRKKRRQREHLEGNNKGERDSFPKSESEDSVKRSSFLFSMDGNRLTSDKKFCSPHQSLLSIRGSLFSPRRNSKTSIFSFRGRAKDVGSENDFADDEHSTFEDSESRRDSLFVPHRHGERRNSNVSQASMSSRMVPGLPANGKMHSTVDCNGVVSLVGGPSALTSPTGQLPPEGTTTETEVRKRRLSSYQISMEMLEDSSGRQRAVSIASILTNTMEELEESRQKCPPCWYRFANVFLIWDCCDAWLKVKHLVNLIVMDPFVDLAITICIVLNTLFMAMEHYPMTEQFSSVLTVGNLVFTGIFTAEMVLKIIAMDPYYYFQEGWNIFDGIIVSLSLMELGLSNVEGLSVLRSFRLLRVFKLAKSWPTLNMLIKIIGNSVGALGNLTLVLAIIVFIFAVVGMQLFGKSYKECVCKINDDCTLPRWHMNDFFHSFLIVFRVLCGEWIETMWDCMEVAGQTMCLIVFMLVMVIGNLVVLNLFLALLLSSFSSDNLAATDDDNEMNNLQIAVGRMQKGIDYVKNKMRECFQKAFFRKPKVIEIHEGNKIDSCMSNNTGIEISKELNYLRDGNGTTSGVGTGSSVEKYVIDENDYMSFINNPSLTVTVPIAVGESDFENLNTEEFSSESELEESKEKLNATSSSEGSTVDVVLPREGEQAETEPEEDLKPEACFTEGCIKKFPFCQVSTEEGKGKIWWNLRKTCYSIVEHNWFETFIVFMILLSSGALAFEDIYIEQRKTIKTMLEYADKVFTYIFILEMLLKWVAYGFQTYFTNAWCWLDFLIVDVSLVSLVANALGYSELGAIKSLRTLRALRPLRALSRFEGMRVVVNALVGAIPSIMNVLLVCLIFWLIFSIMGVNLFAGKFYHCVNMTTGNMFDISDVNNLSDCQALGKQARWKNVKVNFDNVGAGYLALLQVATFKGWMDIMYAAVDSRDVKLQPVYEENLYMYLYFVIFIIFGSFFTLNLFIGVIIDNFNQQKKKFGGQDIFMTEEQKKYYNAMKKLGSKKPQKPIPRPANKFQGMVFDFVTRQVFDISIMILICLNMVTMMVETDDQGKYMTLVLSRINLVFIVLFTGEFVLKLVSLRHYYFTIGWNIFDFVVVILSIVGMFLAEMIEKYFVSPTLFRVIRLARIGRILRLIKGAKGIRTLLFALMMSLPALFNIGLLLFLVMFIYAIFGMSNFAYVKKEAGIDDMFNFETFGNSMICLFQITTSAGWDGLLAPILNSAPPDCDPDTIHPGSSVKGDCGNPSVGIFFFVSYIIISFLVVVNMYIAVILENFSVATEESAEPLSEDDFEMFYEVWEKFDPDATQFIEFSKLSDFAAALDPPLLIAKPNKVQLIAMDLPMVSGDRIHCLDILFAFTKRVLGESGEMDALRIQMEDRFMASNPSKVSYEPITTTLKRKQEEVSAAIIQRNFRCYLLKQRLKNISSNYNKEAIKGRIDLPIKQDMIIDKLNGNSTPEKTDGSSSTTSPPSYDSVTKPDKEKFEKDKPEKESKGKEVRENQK
Description: (§1) To characterize the functional activity of Hm1a and Hm1b, HEK293T cells stably transfected with either hSCN1A, hSCN2A, hSCN3A, hSCN5A, hSCN9A or hSCN10A as well as CHO cells stably transfected with hSCN4A or hSCN8A were used for whole-cell patch-clamp analysis with a high throughput automated planar patch-clamp technology.
(§2) HEK293T cells stably transfected with either hSCN1A, hSCN2A, hSCN3A, hSCN5A, hSCN9A or hSCN10A were maintained in Dulbecco's Modified Eagle's Medium Nutrient Mixture F-12 (Invitrogen, Carlsbad, Calif., USA) supplemented with 10% (v/v) foetal bovine serum (FBS) (Invitrogen), 0.9% Penicillin/Streptomycin (P/S) solution and 100 μg/mL hygromycin or 100 μg/mL neomycin. CHO cells stably transfected with hSCN4A or hSCN8A were maintained in Ham's F12 Nutrient Mixture (Invitrogen, Carlsbad, Calif., USA) supplemented with 10% (v/v) FBS, 0.9% P/S solution and 100 μg/mL hygromycin. All cells were grown in T75 flasks (BD Biosciences, San Jose, Calif., USA) to ˜70% confluency.
(§3) Patch-clamp recordings were conducted in the whole-cell configuration using a Patchliner® (Nanion Technologies, Munich, Germany). […]
(§4) The voltage dependence of activation was studied by measuring the normalised peak currents during 100 ms depolarisations from −120 mV to +30 mV in 5 mV increments. The resulting current-voltage curve was fit to the equation I=[I+exp(−0.03937.z.(V−V1/2)]/g.(V−Vr), where I is current amplitude; z is apparent gating charge; V is test potential; V1/2 is half maximal voltage; g is a factor related to the maximum number of open channels; and Vr is reversal potential. Conductance was determined using G=I/(V−Vr), where G is conductance. The conductance values were then fit with the Boltzmann equation G=1/(1+exp[(V−V1/2)/a]), where a is the slope of the half-maximum, V is the potential of the given pulse and V1/2 is the potential for the half-maximal activation. To study steady-state fast inactivation, cells were held at conditioning pre-pulse potentials ranging from −120 mV to +30 mV in 5 mV increments from a holding potential of −120 mV and a test pulse at 0 mV for 20 ms. […]

hNav1.2 = target: T3, hNav1.2 (Homo sapiens, UniProt Q99250); experiment: Automated planar whole-cell patch clamp (Patchliner), hSCN2A HEK293T cells; assay type: cell-based
T3 construct: expressed in transfected cells; host or cells: HEK293T
Description: as §1, §2, §3, §4

hNav1.1 [3] = target: T1, hNav1.1; experiment: Automated planar whole-cell patch clamp (Patchliner), hSCN1A HEK293T cells; assay type: cell-based
Description: as §1, §2
Patch-clamp recordings were conducted in the whole-cell configuration using a Patchliner® (Nanion Technologies, Munich, Germany). Before recordings, cells were detached from culture flasks with Accutase Cell Detachment Solution (Innovative Cell Technologies Inc., San Diego, Calif., USA) and resuspended at a density of 1×10^6 to 5×10^7 per milliliter in 50% serum free media and 50% external recording solution v/v. The external recording solution comprised: 140 mM NaCl, 4 mM KCl, 1 mM MgCl2, 2 mM CaCl2), 5 mM D-glucose, 10 mM HEPES (pH adjusted to 7.4 with NaOH). The osmolarity of this solution was 298 mOsm. The internal recording solution comprised: 50 mM CsCl, 10 mM NaCl, 60 mM CsF, 2 mM MgCl2, 20 mM EGTA, 10 mM HEPES (pH adjusted to 7.2 with CsOH) and the osmolarity of this solution was 285 mOsm. […]
as §4

hNav1.6 = target: T4, hNav1.6 (Homo sapiens, UniProt Q9UQD0); experiment: Automated planar whole-cell patch clamp (Patchliner), hSCN8A CHO cells; assay type: cell-based
T4 construct: expressed in transfected cells; host or cells: CHO
T4 sequence (Q9UQD0 whole entry): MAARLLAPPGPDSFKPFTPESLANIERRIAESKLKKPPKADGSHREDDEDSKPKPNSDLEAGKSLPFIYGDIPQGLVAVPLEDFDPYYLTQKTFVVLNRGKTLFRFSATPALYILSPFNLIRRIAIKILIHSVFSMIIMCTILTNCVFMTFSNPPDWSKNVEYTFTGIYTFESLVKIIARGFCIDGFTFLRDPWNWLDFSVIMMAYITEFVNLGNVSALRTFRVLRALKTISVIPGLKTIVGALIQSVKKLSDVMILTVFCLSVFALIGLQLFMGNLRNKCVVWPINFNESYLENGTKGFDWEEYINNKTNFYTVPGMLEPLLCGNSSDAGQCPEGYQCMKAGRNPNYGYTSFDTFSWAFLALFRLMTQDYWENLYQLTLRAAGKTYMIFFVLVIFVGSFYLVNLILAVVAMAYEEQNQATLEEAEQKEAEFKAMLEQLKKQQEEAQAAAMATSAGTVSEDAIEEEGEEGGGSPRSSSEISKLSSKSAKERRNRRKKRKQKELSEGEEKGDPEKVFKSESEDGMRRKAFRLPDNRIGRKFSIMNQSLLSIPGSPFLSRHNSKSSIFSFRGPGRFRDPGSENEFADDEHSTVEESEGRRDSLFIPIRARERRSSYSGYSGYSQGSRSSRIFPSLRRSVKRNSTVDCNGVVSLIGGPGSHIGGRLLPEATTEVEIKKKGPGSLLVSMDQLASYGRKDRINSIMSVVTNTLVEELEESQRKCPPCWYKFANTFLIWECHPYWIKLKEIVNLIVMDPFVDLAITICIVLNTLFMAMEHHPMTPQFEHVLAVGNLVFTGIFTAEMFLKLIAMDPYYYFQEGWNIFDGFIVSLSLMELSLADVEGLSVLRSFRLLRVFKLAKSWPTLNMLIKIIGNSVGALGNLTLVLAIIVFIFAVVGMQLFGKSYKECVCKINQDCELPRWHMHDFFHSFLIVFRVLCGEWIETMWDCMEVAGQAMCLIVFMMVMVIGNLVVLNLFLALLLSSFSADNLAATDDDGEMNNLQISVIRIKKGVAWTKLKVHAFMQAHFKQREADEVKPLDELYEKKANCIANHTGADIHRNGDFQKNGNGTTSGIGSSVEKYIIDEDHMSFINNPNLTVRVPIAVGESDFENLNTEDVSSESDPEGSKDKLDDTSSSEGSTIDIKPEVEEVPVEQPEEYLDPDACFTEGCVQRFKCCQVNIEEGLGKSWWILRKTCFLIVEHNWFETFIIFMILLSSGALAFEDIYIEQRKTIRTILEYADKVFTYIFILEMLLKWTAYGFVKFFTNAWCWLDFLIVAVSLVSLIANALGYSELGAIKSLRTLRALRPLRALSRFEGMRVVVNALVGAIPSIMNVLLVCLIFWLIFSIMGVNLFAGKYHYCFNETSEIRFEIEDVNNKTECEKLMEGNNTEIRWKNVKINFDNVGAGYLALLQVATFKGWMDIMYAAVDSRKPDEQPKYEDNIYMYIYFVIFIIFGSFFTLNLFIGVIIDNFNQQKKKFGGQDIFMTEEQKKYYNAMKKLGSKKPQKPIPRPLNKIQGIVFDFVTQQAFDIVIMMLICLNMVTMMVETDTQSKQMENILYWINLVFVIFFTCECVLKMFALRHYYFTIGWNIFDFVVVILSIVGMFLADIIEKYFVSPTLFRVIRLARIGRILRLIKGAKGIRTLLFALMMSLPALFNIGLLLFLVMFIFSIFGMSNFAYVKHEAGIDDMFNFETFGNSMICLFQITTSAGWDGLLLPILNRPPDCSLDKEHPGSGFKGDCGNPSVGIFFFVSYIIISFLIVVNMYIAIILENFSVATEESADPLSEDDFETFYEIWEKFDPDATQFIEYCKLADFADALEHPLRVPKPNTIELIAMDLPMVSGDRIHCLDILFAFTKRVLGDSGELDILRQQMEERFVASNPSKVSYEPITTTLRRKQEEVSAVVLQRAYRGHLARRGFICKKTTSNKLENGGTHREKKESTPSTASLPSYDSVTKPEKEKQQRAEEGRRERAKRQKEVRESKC
Description: as §1, §2, §3, §4

in vitro = details: human, cerebrospinal or other body fluid
[4] = 5 nM and 50 nM, potentials more positive than −15 mV

**Q.** With `O=C(Nc1ccc(S(=O)(=O)Nc2nccs2)cc1)C(c1ccccc1)c1ccccc1` [ICA-121431] as the compound, how does the “calcium responses induced by Hm1a” value (TG or DRG neurons; ICA-121431 500 nM) read?
**A.** Its value is “greatly diminish”.

**Q.** What about the “responses to SGTx1” value (TG or DRG neurons; in presence of ICA-121431) of the same compound?
**A.** Its value is “did not attenuate”.

**Q.** With `CC(C)C[C@@H]1NC(=O)[C@H](Cc2c[nH]cn2)NC(=O)[C@H](CCCCN)NC(=O)[C@@H]2CSSC[C@H](NC(=O)[C@H](CCC(=O)O)NC(=O)[C@@H](N)CO)C(=O)N[C@@H](CCCNC(=N)N)C(=O)N[C@@H](Cc3ccc(O)cc3)C(=O)N[C@@H](CC(C)C)C(=O)N[C@@H](Cc3ccccc3)C(=O)NCC(=O)NCC(=O)N[C@H]3CSSC[C@H](NC(=O)CNC1=O)C(=O)N[C@@H](CCCNC(=N)N)C(=O)N[C@@H]([C@@H](C)O)C(=O)N[C@@H](CC(=O)O)C(=O)N[C@@H](CC(C)C)C(=O)N[C@@H](Cc1ccc(O)cc1)C(=O)N[C@@H](Cc1ccc(O)cc1)C(=O)N[C@H](C(=O)N[C@@H](C)C(=O)N[C@@H](Cc1c[nH]c4ccccc14)C(=O)N[C@@H](CC(=O)O)C(=O)NCC(=O)N[C@H](C(=O)N[C@@H](Cc1ccccc1)C(=O)O)[C@@H](C)O)CSSC[C@H](NC(=O)[C@H](CC(=O)O)NC(=O)[C@H](C)NC(=O)[C@H]([C@@H](C)O)NC(=O)[C@H]([C@@H](C)O)NC(=O)[C@H](CCCCN)NC3=O)C(=O)N2` [recombinant Hm1b] as the compound, how does the “fast inactivation and sustained current at end of depolarising pulse, hNav1.1” value (hNav1.1 [1]) read?
**A.** Its value is “delayed fast inactivation and induced a sustained current”.

**Q.** And the EC50 (hNav1.1 [1])?
**A.** Its EC50 is 18.5 nM.

**Q.** And the “selectivity for hNav1.1 over hNav1.2, hNav1.4, hNav1.5, hNav1.6 and hNav1.7” value (hNav1.1 [1]; sustained currents at 300 nM)?
**A.** The value was “very high level of selectivity”.

**Q.** What does the source list for `CC(C)C[C@@H]1NC(=O)[C@H](Cc2c[nH]cn2)NC(=O)[C@H](CCCCN)NC(=O)[C@@H]2CSSC[C@H](NC(=O)[C@H](CCC(=O)O)NC(=O)[C@@H](N)CO)C(=O)N[C@@H](CCCNC(=N)N)C(=O)N[C@@H](Cc3ccc(O)cc3)C(=O)N[C@@H](CC(C)C)C(=O)N[C@@H](Cc3ccccc3)C(=O)NCC(=O)NCC(=O)N[C@H]3CSSC[C@H](NC(=O)CNC1=O)C(=O)N[C@@H](CCCNC(=N)N)C(=O)N[C@@H]([C@@H](C)O)C(=O)N[C@@H](CC(=O)O)C(=O)N[C@@H](CC(C)C)C(=O)N[C@@H](Cc1ccc(O)cc1)C(=O)N[C@@H](Cc1ccc(O)cc1)C(=O)N[C@H](C(=O)N[C@@H](C)C(=O)N[C@@H](Cc1c[nH]c4ccccc14)C(=O)N[C@@H](CC(=O)O)C(=O)NCC(=O)N[C@H](C(=O)N[C@@H](Cc1ccccc1)C(=O)O)[C@@H](C)O)CSSC[C@H](NC(=O)[C@H](CC(=O)O)NC(=O)[C@H](C)NC(=O)[C@H]([C@@H](C)O)NC(=O)[C@H]([C@@H](C)O)NC(=O)[C@H](CO)NC3=O)C(=O)N2` [recombinant Hm1b[K11S]] (H-SECRYLFGGCSTTADCCKHLGCRTDLYYCAWDGTF-OH; disulfide 3-17, 10-22, 16-29)?
**A.** fast inactivation and sustained current at end of depolarising pulse, hNav1.1 (hNav1.1 [1]): delayed fast inactivation; EC50 (hNav1.1 [1]): 39.5 nM

**Q.** For `NC1=N[C@H](O)[C@H]2[C@H]3O[C@]4(O)O[C@@H]([C@@H](O)[C@@]2(N1)[C@@H]4O)[C@]3(O)CO` [TTX, Tetrodotoxin], which Hm1a-evoked calcium responses (TG or DRG neurons) is on record?
**A.** Its Hm1a-evoked calcium responses is “blocked”.

**Q.** With `CC[C@H](C)[C@@H]1NC(=O)[C@H](CCCNC(=N)N)NC(=O)[C@H](CC(=O)O)NC(=O)[C@H](CCSC)NC(=O)[C@H](CCCNC(=N)N)NC(=O)CNC(=O)CNC(=O)[C@H](Cc2ccccc2)NC(=O)[C@@H](NC(=O)[C@H](CO)NC(=O)[C@H](CO)NC(=O)[C@H](CCCNC(=N)N)NC(=O)[C@H](CCCNC(=N)N)NC(=O)[C@H](CC(C)C)NC(=O)[C@@H](N)CO)CSSC[C@@H](C(=O)N[C@@H](CC(N)=O)C(=O)N[C@@H](CO)C(=O)N[C@@H](Cc2ccccc2)C(=O)N[C@@H](CCCNC(=N)N)C(=O)N[C@@H](Cc2ccc(O)cc2)C(=O)O)NC(=O)CNC(=O)[C@H](CC(C)C)NC(=O)CNC(=O)[C@H](CO)NC(=O)[C@H](CCC(N)=O)NC(=O)[C@H](C)NC(=O)CNC1=O` [hANP] as the compound, how does the “peptide remaining in human CSF” value [2] read?
**A.** Its value is “no detectable”.

**Q.** Which results are given for “ECRYLFGGCKTTADCCKHLGCRTDLYYCAWDGTF-NH2 [Hm1b]”?
**A.** voltage-dependence of fast inactivation of hNav1.3 (hNav1.3): does not appear to alter; hNav1.3 channel inactivation (hNav1.3; 5 nM and 50 nM): slight inhibitory effect; time constants of fast inactivation of hNav1.3 (hNav1.3; [4]): increased; voltage-dependence of fast inactivation of hNav1.2 (hNav1.2): does not appear to alter; hNav1.2 channel inactivation (hNav1.2; 1 nM, 5 nM or 50 nM): did not have a significant effect; time constants of fast inactivation of hNav1.2 (hNav1.2; 50 nM, potentials more positive than −10 mV): increases; voltage-dependence of fast inactivation of hNav1.1 (hNav1.1 [3]): does not appear to alter; voltage-dependence of steady-state activation of hNav1.1 (hNav1.1 [3]): slight hyperpolarizing shift; time constants of fast inactivation of hNav1.1 (hNav1.1 [3]; [4]): increases; hNav1.1 channel inactivation (hNav1.1 [3]; 1, 5 or 50 nM): potently inhibits; time constants of fast inactivation of hNav1.6 (hNav1.6): did not have an effect; voltage-dependence of fast inactivation of hNav1.6 (hNav1.6): does not appear to alter; hNav1.6 channel inactivation (hNav1.6; 5 nM and 50 nM, slight inhibitory effect, compared with hNav1.3): to a lesser extent

**Q.** For `CSCC[C@@H]1NC(=O)[C@H](CC(C)C)NC(=O)[C@H](CCCNC(=N)N)NC(=O)[C@H](CO)NC(=O)[C@@H]2CSSC[C@@H]3NC(=O)[C@H](CO)NC(=O)CNC(=O)[C@H]([C@@H](C)O)NC(=O)[C@H](CSSC[C@H](N)C(=O)N[C@@H](CCCCN)C(=O)NCC(=O)N[C@@H](CCCCN)C(=O)NCC(=O)N[C@@H](C)C(=O)N[C@@H](CCCCN)C(=O)N2)NC(=O)[C@H](CSSC[C@@H](C(N)=O)NC(=O)[C@H](CCCCN)NC(=O)CNC(=O)[C@H](CO)NC(=O)[C@H](CCCNC(=N)N)NC3=O)NC(=O)[C@H](CC(=O)O)NC(=O)[C@H](Cc2ccc(O)cc2)NC1=O` [ω-conotoxin MVIIA], which remaining at 72 h (in vitro) is on record?
**A.** Its remaining at 72 h is roughly 10%.
